Measurements as given in patent US12116387B2, “Antimicrobial peptides” (priority 2021, dated 2024).
Where two headings read alike, the source gives them in different places.

Columns and labels:
mice = test system: mice
Procedure: Therefore, the anti-infective activity of mast-MO was then tested in pre-clinical mouse models. First, the toxicity of a single dose of either mast-L or mast-MO administered peritoneally to mice was assessed in order to determine the range of concentrations to be used in subsequent animal experiments. The hemolytic activity of mast-MO (up to 200 μmoL^−1) against murine red blood cells (Table 6) was also tested prior to conducting animal experiments.
Systemic bacterial infection mouse model. Acute toxicity assay was performed based on the work of Navon-Venezia and co-workers (46). The experiment was performed by intraperitoneal (i.p.) injection of the tested peptides to groups of 10 C57BL/6 mice. Each mouse was injected with a 0.5 mL solution of freshly prepared of peptides in PBS. The doses of peptide administered per mouse were 0, 10, 30, 50, 70 and 90 mg Kg^−1 of body weight. Animals were directly inspected for adverse effects for 6 h, and mortality was monitored for 7 days thereafter. Differences between groups were analysed using the Fisher exact test (differences were considered to be statistically significant when the P value was <0.05). Briefly, E. coli ATCC8739 and E. coli 1812446 or S. aureus ATCC 29213 and S. aureus (MRSA) ATCC33591 were plated on tryptic soy agar plus 5% sheep blood (blood agar, Himedia, India) from a frozen stock. Following 24 h of incubation of the agar plate, three isolated colonies were transferred to 1 mL of BHI. The broth culture was incubated overnight (12-16 h) at 37° C. with shaking. […] Mice were challenged with either strain of E. coli ATCC8739 and E. coli 1812446 or S. aureus ATC29213 and S. aureus (MRSA) ATCC33591 in a final volume of 200 μL of PBS by intraperitoneal injection (i.p.). The day of challenge was designated as day 1 of the experiment. Three hours after bacterial injection, mice (n=5) were treated, intraperitoneally, with different concentrations of peptides (1, 5 or 10 mg Kg^−1), LL-37, gentamicin and 10 mg Kg^−1 of imipenem or PBS for 8 days. For bacterial load evaluation, 5 mice per group were used. Animals were humanely killed 24 h after bacterial administration. To detect bacterial colonization, the peritoneal lavage samples were collected under sterile conditions. The peritoneal lavage was obtained by washing the cavity with 5 mL of sterile PBS. Samples were diluted serially, and 100 μL of each dilution was spread in duplicate on appropriate agar plates for the count of developed colonies. Cytokine levels (i.e., IFN-γ, IL-6, IL−10, IL−12p70 and TNF-α) in the peritoneal lavage of the mice both in the absence and presence of peptide treatment were quantified by ELISA (Peprotech, USA) according to the manufacturer's instructions.

[1] = test system: different human and murine cell lines; test: Hemolysis and cytotoxicity, text summary over the cell lines of Table 2; format: cell-based; details: range over cell lines
Procedure: Once the mechanisms by which the peptide targeted bacterial cells was elucidawted, the effect of the pentapeptide motif insertion on cytotoxicity against mammalian cells was evaluated.

S. aureus MRSA ATCC33591 = test: Systemic sepsis infection mouse model, MRSA; format: in vivo; details: 5 mg Kg^−1 i.p.
Procedure: (§1) FIG. 5A-5I pertains to a study of the anti-infective activity of mast-MO against Gram-negative and Gram-positive pathogens in a lethal sepsis infection model. In FIG. 5A mice were infected with bacteria, treated with each peptide or antibiotic and monitored for 8 days. Survival and cell counts after 24 h, respectively, are shown for E. coli ATCC8739 (2×10^4 CFU/mL inoculum) FIG. 5B and FIG. 5C, S. aureus ATCC29213 (2×10^9 CFU/mL inoculum) FIG. 5D and FIG. 5E, E. coli 1812446 (KPC-positive) (2×10^4 CFU inoculum) FIG. 5F and FIG. 5G, and S. aureus (MRSA) ATCC33591 (2×10^9 CFU inoculum) FIG. 5H and FIG. 5I. Mice were treated intraperitoneally (i.p.) with 1, 5 and 10 mg Kg^−1 of mast-L, mast-MO or 10 mg Kg^−1 of the antibiotics gentamicin and imipenem. PBS was used as a control for the untreated group of mice. Treatments were administered 3 h post-infection. Data are expressed as the mean±standard deviation. Statistical analysis was performed using Bonferroni test. […], **p<0.01, ***p<0.001 compared to the untreated control.
(§2) Systemic bacterial infection mouse model. […] Animals were humanely killed 24 h after bacterial administration.

[2] = test system: human embryonic kidney (HEK293) cells; test: Cytotoxicity against HEK293 cells; format: cell-based; details: HEK293
Source text: The FLPII motif was chosen for the permutations to preserve the natural antimicrobial activity of mast-L and also conserve the hydrophobic content inserted in the N-terminal extremity for the initial design of mast-MO. Next, we assessed the antimicrobial (FIG. 10) and cytotoxic activities of the mast-MO analog library against HEK293 cells (FIG. 6C). These specific cell line was chosen as it derives from human embryonic kidney cells and potential antimicrobial (i.e., AMPs, antibiotics) toxicity affects the kidneys, which are responsible for clearing such molecules (34). Also measured was whether the peptides aggregated at the highest concentration tested (128 μmoL^−1) (Table 7) since the motif inserted is composed of residues with aliphatic or aromatic side chain groups that may be prone to aggregation when in proximity within the primary peptide sequence, thus altering biological activity. Minor changes to the first five residues inserted in the mast-MO primary sequence led to a pronounced decrease in cytotoxic activity (2.5 to 5-fold) compared to mast-MO (FIG. 6C).

[3] = test system: murine macrophages monocytes (RAW 264.7); test: Cytotoxicity against RAW 264.7 cells (MTT); format: cell-based; details: RAW 264.7 (Table 2)
[4] = test system: E. coli ATCC8739 and clinical isolate E. coli 1812446 (KPC-positive); test: Systemic sepsis infection mouse model, E. coli strains; format: in vivo; details: 5 mg Kg^−1 i.p., 3 h post-infection
Procedure: as §1, §2

## NLKALAALAKKIL [Mast-L]
mice; Dose 5 mg Kg^−1, five mice per group
  Gross toxicity, number of mice (TL): 2 (TL-1)
mice; Dose 10 mg Kg^−1, five mice per group
  Gross toxicity, number of mice (TL): 5
mice; single dose, peritoneally
  Dose above which highly toxic in preliminary mouse experiments: higher than 10 mg Kg^−1
[1]
  Concentration hemolytic and toxic towards human and murine cell lines: 7 to 50 µmol⁻¹
S. aureus MRSA ATCC33591
  Survival: 60%
[2]
  Cytotoxic activity, Peptide Concentration: 50 µmol/L
[3]
  Cytotoxic activity, Peptide Concentration: 10 µmol/L
[4]
  Survival: 40 to 60%
